Results reported in patent US20040209325.

Target: T1, bovine brain myelin basic protein (MBP, Sigma), P02687
T1 chain: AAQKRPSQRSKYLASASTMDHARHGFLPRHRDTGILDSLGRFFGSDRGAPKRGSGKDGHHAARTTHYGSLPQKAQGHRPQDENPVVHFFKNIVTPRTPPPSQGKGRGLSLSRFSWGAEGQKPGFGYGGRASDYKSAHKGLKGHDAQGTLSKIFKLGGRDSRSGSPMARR

B1: OsMAPK5a, endogenous protein from rice leaf extracts (protein)
chain: MDGAPVAEFRPTMTHGGRYLLYDIFGNKFEVTNKYQPPIMPIGRGAYGIVCSVMNFETREMVAIKKIANAFNNDMDAKRTLREIKLLRHLDHENIIGIRDVIPPPIPQAFNDVYIATELMDTDLHHIIRSNQELSEEHCQYFLYQILRGLKYIHSANVIHRDLKPSNLLLNANCDLKICDFGLARPSSESDMMTEYVVTRWYRAPELLLNSTDYSAADVWSVGCIFMELINRQPLFPGRDHMHQMRLITEVIGTPTDDELGFIRNEDARKYMRHLPQYPRRTFASMFPRVQPAALDLIERMLTFNPLQRITVEEALDHPYLERLHDIADEPICLEPFSFDFEQKALNEDQMKQLIFNEAIEMNPNIRY
- in-gel kinase assay of immunoprecipitated OsMAPK5a: the OsMAPK5a kinase activity was significantly induced by P. grisea infection
